According to patent US20160230205A1 (R P SCHERER TECHNOLOGIES, published 2016):
Blank lines part the entries; values can stand above or below the binder they belong to.

Experiments:
[1] = molecular target: T1, 14 amino acid FGE substrate peptide ALCTPSRGSLFTGR
T1 chain: ALCTPSRGSLFTGR

[2] = molecular target: T2, Streptomyces coelicolor formylglycine-generating enzyme (Sc-FGE), wild-type, with N-terminal hexahistidine … (Streptomyces coelicolor, UniProt Q9F3C7 1-314); test: Michaelis-Menten kinetics from discontinuous RP-HPLC activity assay
T2 construct: Made in E. coli BL21(DE3); also called S. coelicolor FGE; not shown: N-terminal hexahistidine tag and TEV protease cleavage site from the pET151-D/TOPO vector
T2 sequence (looked up): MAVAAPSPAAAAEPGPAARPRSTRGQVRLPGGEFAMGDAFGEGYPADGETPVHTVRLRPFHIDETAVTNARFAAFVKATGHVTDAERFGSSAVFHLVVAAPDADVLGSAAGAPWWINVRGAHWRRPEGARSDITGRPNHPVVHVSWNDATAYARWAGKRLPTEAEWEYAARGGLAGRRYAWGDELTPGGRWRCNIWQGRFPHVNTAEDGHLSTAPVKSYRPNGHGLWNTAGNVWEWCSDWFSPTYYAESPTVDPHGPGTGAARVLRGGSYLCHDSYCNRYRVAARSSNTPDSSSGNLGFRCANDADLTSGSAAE

B1: Streptomyces coelicolor formylglycine-generating enzyme (Sc-FGE), wild-type, with N-terminal hexahistidine tag and TEV protease cleavage site, activated with … (protein)
chain: T2 sequence (looked up)
KM [1]: KM=96 µM

binding result [2]: binds
B2: 14 amino acid FGE substrate peptide ALCTPSRGSLFTGR (peptide)
peptide: ALCTPSRGSLFTGR
notes: Used as substrate for both the Sc and Hs forms of the enzyme; also called Csub

B3: Catalytic core of H. sapiens formylglycine-generating enzyme with TEV protease site and C-terminal His6 tag (Hs-cFGE) (protein)
chain: DRSLEANAPGPVPGERQLAHSKMVPIPAGVFTMGTDDPQIKQDGEAPARRVTIDAFYMDAYEVSNTEFEKFVNSTGYLTEVAAAPWWLPVKGANWRHPEGPDSTILHRPDHPVLHVSWNDAVAYCTWAGKRLPTEAEWEYSCRGGLHNRLFPWGNKLQPKGQHYANIWQGEFPVTNTGEDGFQGTAPVDAFPPNGYGLYNIVGNAWEWTSDWWTVHHSVEETLNPKGPPSGKDRVKKGGSYMCHRSYCYRYRCAARSQNTPDSSASNLGFRCAADRLPTMDKGENLYFQGHHHHHH
KM [1]: KM=0.34 µM
